Results on two molecules are retold here after paper PMC4923902 (Scientific Reports, 2016).

Residue numbers refer to the chain shown, from its start. Numbers in names are those of the source.

In assay [1] the target is T1, phosphorylated opsin (bovine, UniProt P02699 1-348, phosphorylated on the C-terminus by endogenous GRK1 (sites not given); no retinal (apo-protein)).
T1 construct: bovine opsin (apo-protein of rhodopsin), endogenous in ROS membranes; in isolated, washed ROS disc membranes, not on whole cells; also called Ops-P; OpsP
The assay can be described thus: site-directed steady-state fluorescence; 1 uM labelled arrestin with 6 uM Ops-P in ROS membranes, 50 mM HEPES pH 8, low salt, 20 °C. As to conditions: one partner purified.

Assay [2] has as its target T1, phosphorylated opsin. The assay can be described thus: site-directed steady-state fluorescence; 1 uM labelled arrestin with 6 uM receptor in ROS membranes, 50 mM HEPES pH 7, low salt, 20 °C. The note with it: one partner purified.

T1 sequence (P02699 whole entry): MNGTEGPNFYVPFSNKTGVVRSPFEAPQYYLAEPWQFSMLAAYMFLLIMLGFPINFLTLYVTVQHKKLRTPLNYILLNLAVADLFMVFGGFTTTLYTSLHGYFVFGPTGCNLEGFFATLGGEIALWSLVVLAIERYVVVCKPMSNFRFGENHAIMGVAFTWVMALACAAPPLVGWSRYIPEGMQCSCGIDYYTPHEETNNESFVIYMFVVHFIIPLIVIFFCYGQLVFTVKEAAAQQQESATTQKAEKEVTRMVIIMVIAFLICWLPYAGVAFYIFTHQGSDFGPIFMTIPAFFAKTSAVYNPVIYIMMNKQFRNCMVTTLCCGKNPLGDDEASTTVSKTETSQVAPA

B1: arrestin I72NBD (natural protein, bovine, UniProt P08168 1-404, looked up)
chain: MKANKPAPNHVIFKKISRDKSVTIYLGKRDYIDHVERVEPVDGVVLVDPELVKGKRVYVSLTAAFRYGQEDCDVMGLSFRRDLYFSQVQVFPPVGASGATTRLQESLIKKLGANTYPFLLTFPDYLPSSVMLQPAPQDVGKSAGVDFEIKAFATHSTDVEEDKIPKKSSVRLLIRKVQHAPRDMGPQPRAEASFQFFMSDKPLRLAVSLSKEIYYHGEPIPVTVAVTNSTEKTVKKIKVLVEQVTNVVLYSSDYYIKTVAAEEAQEKVPPNSSLTKTLTLVPLLANNRERRGIALDGKIKHEDTNLASSTIIKEGIDKTVMGILVSYQIKVKLTVSGLLGELTSSEVATEVPFRLMHPQPEDPDTAKESFQDENFVFEEFARQNLKDAGEYKEEKTDQEAAMDE
modifications: NBD fluorophore (IANBD) on the cysteine at site 72
notes: recombinant bovine arrestin-1 mutant; also called arrestin-1 C63A, C128S, C143A, W194F, I72C labelled with IANBD; source: E. coli, purified
For B1, the “fluorescence increase relative to that with Meta II-P” value was roughly 18% with phosphorylated opsin [1] and roughly 45% in the assay with phosphorylated opsin [2].

B2: arrestin I299B/L173W (natural protein, bovine, UniProt P08168 1-404, looked up)
chain: B1 chain with C72I, L173W, I299C
modifications: bimane fluorophore (monobromobimane) on the cysteine at site 299
notes: recombinant bovine arrestin-1 mutant; also called arrestin-1 C63A, C128S, C143A, W194F, L173W, I299C labelled with monobromobimane; source: E. coli, purified
With B2, in the assay with phosphorylated opsin [1], the “fluorescence change relative to that with Meta II-P” value is roughly 38%.
